{"source": "paper PMC12947862", "about": "“Oligomerization enables the selective targeting of an intrinsically disordered region by a small molecule” (Science Advances, 2026)", "key": {"EPI-001 [1]": {"target": "EPI-001", "assay": "1H NMR chemical shift perturbation of EPI-001", "settings": "1 molar equivalent of the corresponding Tau-5* mutant; parent: est. -0.018; read off a plot"}, "EPI-001 [2]": {"target": "EPI-001", "assay": "intact MS", "settings": "t = 24 hours (last time point); parent: est. 21; read off a plot"}, "Cys123 (position 123, …)": {"target": "Cys123 (position 123, …)", "assay": "NMR", "settings": "5 °C, 20 mM sodium phosphate, no added salt stated, 3 mM TCEP, 0.05% (w/v) NaN3, Reduced free thiol, intrinsically disordered fragments, no ligand. Protein concentrations were 70 μM Nt C123, 300 μM Tau-5* C404 and 150 μM Ct C518."}, "[3]": {"target": "Cys404 (UniProt position 406, …)", "assay": "NMR", "settings": "5 °C, 20 mM sodium phosphate, no added salt stated, 3 mM TCEP, 0.05% (w/v) NaN3, Reduced free thiol, intrinsically disordered fragments, no ligand. Protein concentrations were 70 μM Nt C123, 300 μM Tau-5* C404 and 150 μM Ct C518."}, "Cys518": {"target": "Cys518", "assay": "NMR", "settings": "5 °C, 20 mM sodium phosphate, no added salt stated, 3 mM TCEP, 0.05% (w/v) NaN3, Reduced free thiol, intrinsically disordered fragments, no ligand. Protein concentrations were 70 μM Nt C123, 300 μM Tau-5* C404 and 150 μM Ct C518."}, "[4]": {"target": "the molecule itself", "assay": "dynamic light scattering; NR ADs in 20 mM sodium phosphate pH 7.4, 1 mM TCEP, 0.5% DMSO-d6, 5°C; percentage population of monomer and high-order species; 35 μM AR AD; with and without EPI-001"}}}
{"molecule": "AR AD fragment transactivation unit 5 (Tau-5*; residues 330 to 448) (from UniProt P10275) G394A; S395A; G407A", "values": [{"measurement": "response", "setting": "EPI-001 [1]", "result": -0.042, "unit": "p.p.m."}, {"measurement": "other: EPI-001 adduct (%)", "setting": "EPI-001 [2]", "result": 26, "unit": "%"}]}
{"molecule": "AR AD fragment transactivation unit 5 (Tau-5*; residues 330 to 448) (from UniProt P10275) C404Y", "values": [{"measurement": "response", "setting": "EPI-001 [1]", "result": -0.021, "unit": "p.p.m."}]}
{"molecule": "AR AD fragment transactivation unit 5 (Tau-5*; residues 330 to 448) (from UniProt P10275) W433A; H434A; F437A", "values": [{"measurement": "response", "setting": "EPI-001 [1]", "result": -0.008, "unit": "p.p.m."}, {"measurement": "other: EPI-001 adduct (%)", "setting": "EPI-001 [2]", "result": 9.3, "unit": "%"}]}
{"molecule": "AR AD fragment transactivation unit 5 (Tau-5*; residues 330 to 448) (from UniProt P10275) L436P", "values": [{"measurement": "response", "setting": "EPI-001 [1]", "result": -0.013, "unit": "p.p.m."}]}
{"molecule": "AR AD fragment transactivation unit 5 (Tau-5*; residues 330 to 448) (from UniProt P10275) G407A", "values": [{"measurement": "response", "setting": "EPI-001 [1]", "result": -0.024, "unit": "p.p.m."}]}
{"molecule": "AR AD fragment transactivation unit 5 (Tau-5*; residues 330 to 448) (from UniProt P10275) Y393S; W397A; Y406S; H413A", "values": [{"measurement": "response", "setting": "EPI-001 [1]", "result": -0.006, "unit": "p.p.m."}, {"measurement": "other: EPI-001 adduct (%)", "setting": "EPI-001 [2]", "result": 2.5, "unit": "%"}]}
{"molecule": "AR AD fragment transactivation unit 5 (Tau-5*; residues 330 to 448) (from UniProt P10275) A398P", "values": [{"measurement": "response", "setting": "EPI-001 [1]", "result": -0.012, "unit": "p.p.m."}, {"measurement": "other: EPI-001 adduct (%)", "setting": "EPI-001 [2]", "result": 11, "unit": "%"}]}
{"molecule": "AR AD fragment transactivation unit 5 (Tau-5*; residues 330 to 448) (from UniProt P10275) noAro", "values": [{"measurement": "response", "setting": "EPI-001 [1]", "result": -0.003, "unit": "p.p.m."}]}
{"molecule": "Androgen receptor activation domain fragment Nt C123 (residues 1-151, C129S) (Homo sapiens; C129S) (protein) MEVQLGLGRVYPRPPSKTYRGAFQNLFQSVREVIQNPGPRHPEAASAAPPGASLLLLQQQQQQQQQQQQQQQQQQQQQETSPRQQQQQQGEDGSPQAHRRGPTGYLVLDEEQQPSQPQSALECHPERGSVPEPGAAVAASKGLPQQLPAPP", "values": [{"measurement": "pKa", "setting": "Cys123 (position 123, …)", "result": "8.86 ± 0.03"}]}
{"molecule": "Androgen receptor activation domain fragment Tau-5* C404 (residues 330-447, C448 deleted) (Homo sapiens; del448) (protein) AAGSSGTLELPSTLSLYKSGALDEAAAYQSRDYYNFPLALAGPPPPPPPPHPHARIKLENPLDYGSAWAAAAAQCRYGDLASLHGAGAAGPGSGSPSAAASSSWHTLFTAEEGQLYGP", "values": [{"measurement": "pKa", "setting": "[3]", "result": "8.95 ± 0.05"}]}
{"molecule": "Androgen receptor activation domain fragment Ct C518 (residues 441-558, 4G polyG, C448 deleted) (Homo sapiens; del448;del451-470) (protein) EGQLYGPGGGGEAGAVAPYGYTRPPQGLAGQESDFTAPDVWYPGGMVSRVPYPSPTCVKSEMGPWMDSYSGPYGDMRLETARDHVLPIDYYFPPQKT", "values": [{"measurement": "pKa", "setting": "Cys518", "result": "8.20 ± 0.08"}]}
{"molecule": "estrogen receptor alpha activation domain (ERα AD) (domain or fragment, human (from the printed UniProt entry), UniProt P03372 1-184, looked up, source: E. coli Rosetta (DE3), purified from inclusion bodies (HisTrap in urea, SEC); not shown: His tag, N-terminal, cleaved) MTMTLHTKASGMALLHQIQGNELEPLNRPQLKIPLERPLGEVYLDSSKPAVYNYPEGAAYEFNAAAAANAQVYGQTGLPYGPGSEAAAFGSNGLGGFPPLNSVSPSPLMLLHPPPQLSPFLQPHGQQVPYYLENEPSGYTVREAGPPAFYRPNSDNRRQGGRERLASTNDKGSMAMESAKETRY", "values": [{"measurement": "binding result", "setting": "[4]", "result": "binds"}]}
{"molecule": "glucocorticoid receptor activation domain (GR AD) (domain or fragment, human (from the printed UniProt entry), UniProt P04150 1-420, looked up, source: E. coli Rosetta (DE3), purified from inclusion bodies (HisTrap in urea, SEC); not shown: His tag, N-terminal, cleaved) MDSKESLTPGREENPSSVLAQERGDVMDFYKTLRGGATVKVSASSPSLAVASQSDSKQRRLLVDFPKGSVSNAQQPDLSKAVSLSMGLYMGETETKVMGNDLGFPQQGQISLSSGETDLKLLEESIANLNRSTSVPENPKSSASTAVSAAPTEKEFPKTHSDVSSEQQHLKGQTGTNGGNVKLYTTDQSTFDILQDLEFSSGSPGKETNESPWRSDLLIDENCLLSPLAGEDDSFLLEGNSNEDCKPLILPDTKPKIKDNGDLVLSSPSNVTLPQVKTEKEDFIELCTPGVIKQEKLGTVYCQASFPGANIIGNKMSAISVHGVSTSGGQMYHYDMNTASLSQQQDQKPIFNVIPPIPVGSENWNRCQGSGDDNLTSLGTLNFPGRTVFSNGYSSPSMRPDVSSPPSSSSTATTGPPPKL", "values": [{"measurement": "binding result", "setting": "[4]", "result": "binds"}]}
{"molecule": "progesterone receptor activation domain (PR AD) (domain or fragment, human (from the printed UniProt entry), UniProt P06401 1-566, looked up, source: E. coli Rosetta (DE3), purified from inclusion bodies (HisTrap in urea, SEC); not shown: His tag, N-terminal, cleaved) MTELKAKGPRAPHVAGGPPSPEVGSPLLCRPAAGPFPGSQTSDTLPEVSAIPISLDGLLFPRPCQGQDPSDEKTQDQQSLSDVEGAYSRAEATRGAGGSSSSPPEKDSGLLDSVLDTLLAPSGPGQSQPSPPACEVTSSWCLFGPELPEDPPAAPATQRVLSPLMSRSGCKVGDSSGTAAAHKVLPRGLSPARQLLLPASESPHWSGAPVKPSPQAAAVEVEEEDGSESEESAGPLLKGKPRALGGAAAGGGAAAVPPGAAAGGVALVPKEDSRFSAPRVALVEQDAPMAPGRSPLATTVMDFIHVPILPLNHALLAARTRQLLEDESYDGGAGAASAFAPPRSSPCASSTPVAVGDFPDCAYPPDAEPKDDAYPLYSDFQPPALKIKEEEEGAEASARSPRSYLVAGANPAAFPDFPLGPPPPLPPRATPSRPGEAAVTAAPASASVSSASSSGSTLECILYKAEGAPPQQGPFAPPPCKAPGASGCLLPRDGLPSTSASAAAAGAAPALYPALGLNGLPQLGYQAAVLKEGLPQVYPPYLNYLRPDSEASQSPQYSFESLPQKI", "values": [{"measurement": "binding result", "setting": "[4]", "result": "binds"}]}
{"molecule": "mineralocorticoid receptor activation domain (MR AD) (domain or fragment, human (from the printed UniProt entry), UniProt P08235 1-602, looked up, source: E. coli Rosetta (DE3), purified from inclusion bodies (HisTrap in urea, SEC); not shown: His tag, N-terminal, cleaved) METKGYHSLPEGLDMERRWGQVSQAVERSSLGPTERTDENNYMEIVNVSCVSGAIPNNSTQGSSKEKQELLPCLQQDNNRPGILTSDIKTELESKELSATVAESMGLYMDSVRDADYSYEQQNQQGSMSPAKIYQNVEQLVKFYKGNGHRPSTLSCVNTPLRSFMSDSGSSVNGGVMRAVVKSPIMCHEKSPSVCSPLNMTSSVCSPAGINSVSSTTASFGSFPVHSPITQGTPLTCSPNVENRGSRSHSPAHASNVGSPLSSPLSSMKSSISSPPSHCSVKSPVSSPNNVTLRSSVSSPANINNSRCSVSSPSNTNNRSTLSSPAASTVGSICSPVNNAFSYTASGTSAGSSTLRDVVPSPDTQEKGAQEVPFPKTEEVESAISNGVTGQLNIVQYIKPEPDGAFSSSCLGGNSKINSDSSFSVPIKQESTKHSCSGTSFKGNPTVNPFPFMDGSYFSFMDDKDYYSLSGILGPPVPGFDGNCEGSGFPVGIKQEPDDGSYYPEASIPSSAIVGVNSGGQSFHYRIGAQGTISLSRSARDQSFQHLSSFPPVNTLVESWKSHGDLSSRRSDGYPVLEYIPENVSSSTLRSVSTGSSRPSKI", "values": [{"measurement": "binding result", "setting": "[4]", "result": "binds"}]}
